Test results from the nanobody polyreactivity screen of Harvey et al. (2022).

Experiment: yeast display, Sf9 membrane polyspecificity reagent, FACS + sequencing; frameworks hold sequencing errors
Procedure, shortened: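 In a synthetic yeast display library (Saccharomyces cerevisiae BJ5465), nanobody expression was induced with galactose for 36–48 hours. FACS gates were set low and high (top ~1%) using anti-HA fluorescence for expression and streptavidin fluorescence for binding of the Sf9 membrane reagent. Each polyreactivity label is drawn from the gate of origin.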
With “QVKLQESGGGLVQAGGSLRLSCAASGYISHADEMGWYRQAPGKEHELVASISNGGSTNYADSVKGRFTISRDNAKNTVYLQMNSLKWEDTAVYYWAAWTGQVDIHYYWGQGTQVTVSS” the “polyreactivity (PSR sort gate)” value was “low polyreactivity”. With “QVKLVDSGGGLVQAGGSLRLSCAASGRTFWNYAMGWYRQAPGKERELVAVIRFSDGSTYYADSVKGRFTISRDNAKNTVYLQMNSLKPEDTAVYYCAAKGPRRWGSGFDYWGQGTQVTVSS” the “polyreactivity (PSR sort gate)” value was “low polyreactivity”. With “QVKLVDSGGGLVQAGGSLRLTCAASGITFDKYAMGWYRQAPGKERELVAAITKSSGSTYYADSVKGRFTISRVNAKNTDYLQMNSLKAEDTAVYYCAAGIVYCEYFWGQGTQVTVSS” the “polyreactivity (PSR sort gate)” value was “high polyreactivity”. In the case of “QVKLVDTGGGLVKAGGSLLLSCAASGSPFVWYGMGWYRQSHGKEREFDAAISTSGGRTYYADSVKGRFTISRDNAKNTVYLQMNSLKPEDTAVYYCARQPRLYFKGKLYGYWGQGTQVTVSS”, the “polyreactivity (PSR sort gate)” value is reported as “high polyreactivity”. For “QVKLVESAAGLVQAGGSLRLSCDASGFTFALYANGLYIQAPRKERELVAVITYCGGRTYYADSVKGRFTISRVNAKNTVYLLMYSLKPEDTAVYYCNARYRQKGLYGTAFDYWGQGTQVTVSS”, the “polyreactivity (PSR sort gate)” value was “high polyreactivity”. In the case of “QVKLVESAGGLVQAGGSLRLSCSASAFIFGFNAMGWYRQEPGKERELVAAITWRGGRTSNADSVKGRFTISRDNAKNTVYLQMNSLKPEDTAVYYCAARRGTIVTRSRGYNYWGQGTQVTVSS”, the “polyreactivity (PSR sort gate)” value is reported as “high polyreactivity”. For “QVKLVESGGCLVKAGGSLRLSCAATGRIFLYYAMGWYRQAPGKEMELVATITSGGRTNYADSVKGRFTISRDNAKNTVYLQMNSLKPVDTAVYNCARQSYGSYRRYGFSALYGYLGQGTQVTVSS”, the “polyreactivity (PSR sort gate)” value was “high polyreactivity”. For “QVKLVESGGGLDQAGGSLRLSCAASGTIFRKNAMGWYRQAPGKERELVAAMTGTGRTTYADSVKGRFTISRDNAKNTFYLQMNSLKPEDTAVYYCAADVNYYQHRLYYWGQGTQVTVSS”, the “polyreactivity (PSR sort gate)” value was “low polyreactivity”. In the case of “QVKLVESGGGLFQAGGSLRLSCAASGITFTFNAMGWYRQAPGKERELVAAITWSGGSTFYADSVKGRFTISRDNAKNTVYLQMNSLKPEDTAVYYCARDTELYVRWLDYWGQGTQVTVSS”, the “polyreactivity (PSR sort gate)” value is reported as “low polyreactivity”. With “QVKLVESGGGLVKAGASLRLSCAASGSTLQHYAMGWYRQAPGKERELVAAINRSGDRTYYADSVKGRFTISRDNAKTTVYLQMNSLKPEDTPVDYCAAYDDYRAPVRYEYWGQGTQVTVSS” the “polyreactivity (PSR sort gate)” value was “high polyreactivity”. For “QVKLVESGGGLVQAGCSLRLTCAASGSTSDMKAMGWYRQAPGKERELVAAISYSGGSTYYADSVKGRFTMSRDNAKNTVYLQMNSLKPEDTAVYYCAKQVADRYDYWGQGTEVTVSS”, the “polyreactivity (PSR sort gate)” value was “low polyreactivity”. For “QVKLVESGGGLVQAGGRLRLSCAASGSIFTYYAMGWYRQAPGKERELVAAISYGGGSTYYADSVKGRFTISRDNAKYTVYLQMNSLKPEDTAVYDCNGVLGVNYGYWGQGTQVTVSS”, the “polyreactivity (PSR sort gate)” value was “high polyreactivity”. For “QVKLVESGGGLVQAGGSLRLICAASGRISQSNAMGRYRQAPGKERELVAAISWRGGSTYYADSVMGRFTISRDNAKNTVYLQMNSLKPEDTAVYYSAVRGKYDRHYYWGQGTQVTVSS”, the “polyreactivity (PSR sort gate)” value was “high polyreactivity”. For “QVKLVESGGGLVQAGGSLRLRCAASGIIFDYYAMGWYRQAPGKERELVAAISKRGGSTYYADSVKGRFTISRDNAKNTVYLQMNSLKPEDTAVYYCAAVYAREAKRYDYWGQGTQVTVSS”, the “polyreactivity (PSR sort gate)” value was “high polyreactivity”. For “QVKLVESGGGLVQAGGSLRLSCAASGFTFRRYAMGWYRQAPGKERELVAGITSGGSTYYADSVKGRFTISRDNAKNTVYLQMNSLKPEDTAVYYCNTKVISRTSERRGNGFTRYDYWGQGTQVTVSS”, the “polyreactivity (PSR sort gate)” value was “low polyreactivity”. With “QVKLVESGGGLVQAGGSLRLSCAASGFTFYYYTMGGSRQAPGKERELVAAITSRGGNTYYADSVKGRFTISRDYEKNTVYLQMNSLKPEDTAVYYCAACLFSSRCYGYWGQGTQVTVSS” the “polyreactivity (PSR sort gate)” value was “high polyreactivity”. For “QVKLVESGGGLVQAGGSLRLSCAASGFTIRSYVMGWYRQAPGKERELVAAIRRSGGSTYYADSVKGRFTISRDNAKNTVYFQMNSLKREDTAVYYCAAYIWWRDYIEFDYWGQGTQVTVSS”, the “polyreactivity (PSR sort gate)” value was “high polyreactivity”. In the case of “QVKLVESGGGLVQAGGSLRLSCAASGGIFSPNAMGWYRHAPGKERELVAAISSNGGSTNYADSVKGRFTISRDNAKNTVYLQMNSLKPEDNAVYYCAKVYRSIGPNVSRYGLSYYYWGQGTQVTVSS”, the “polyreactivity (PSR sort gate)” value is reported as “low polyreactivity”. In the case of “QVKLVESGGGLVQAGGSLRLSCAASGGNFGNYAMGWYRQAPWKERELVATIRYRGGSTYYADSVKGRFTISRDNAKITVYLQMNSLIPEDTAVFYCAARRSHPQDPRFRYGYWGQATQVTVSS”, the “polyreactivity (PSR sort gate)” value is reported as “high polyreactivity”. For “QVKLVESGGGLVQAGGSLRLSCAASGGNFYRYAMGWYRQAPGKERELVAAITRGDSTNYADSVKGRFTISRDNAKNTVYLQMNSLKPEDTAVYYCNAAVSARQNDTGGFQGDYWGQGTQVTVSS”, the “polyreactivity (PSR sort gate)” value was “low polyreactivity”. For “QVKLVESGGGLVQAGGSLRLSCAASGLTFDHNVMGWYRPAPGKERELVAAISRSGSSTYYADSVKGRFTISRDNAKNTVYLQMNSLKPEDTAVYYCAAARSRYSYATGFDYWGQGTQVTVSS”, the “polyreactivity (PSR sort gate)” value was “high polyreactivity”. With “QVKLVESGGGLVQAGGSLRLSCAASGLTYLYTMGWSRQAPGKERELVAAITRSGRTYYADSVKGRFTISRDNAKNTVYLQMNSLKPEDTAVYYCATRTGYQQPDGRYYYWGQGTQVTVSS” the “polyreactivity (PSR sort gate)” value was “high polyreactivity”. In the case of “QVKLVESGGGLVQAGGSLRLSCAASGRIFLWYAMGWYRQEPGKERELVAAISSNGGSTRYAHSVKGRFTISRDNAKNTVYLQMNSLKPEDTAVYYCNADVHWNRYPYGGNGYGYWGQGTQVTVSS”, the “polyreactivity (PSR sort gate)” value is reported as “low polyreactivity”. In the case of “QVKLVESGGGLVQAGGSLRLSCAASGRIFYGYTMVWYRQAPGKERELVAAISSSGGSTYYADSVKGRFTISRDNAKNTVYLQMISLKPEDTAVYYCAAYVPYSPYHVEFNYWGQGTQVTVSS”, the “polyreactivity (PSR sort gate)” value is reported as “high polyreactivity”. In the case of “QVKLVESGGGLVQAGGSLRLSCAASGRTFGIYAMGWYRQAPGKERELVAAITWSGDSTYYADSVKGRFTISRDNAKNTVYLQINSLKPEDTAVYYCAADYVGVTSVRYDYWGQGTQVTVSS”, the “polyreactivity (PSR sort gate)” value is reported as “low polyreactivity”. For “QVKLVESGGGLVQAGGSLRLSCAASGSIFLGNAMGWYRQAPGKERELVATISSSDGSTDYADSVKGRFTISRDNAKNTVYLQMNSLKPEDTEVYYCNADYSYGTTLDYWGQGSQVTVSS”, the “polyreactivity (PSR sort gate)” value was “low polyreactivity”. With “QVKLVESGGGLVQAGGSLRLSCAASGSIFLSYAMGWYRQAPGKDRELVAAISGGGGSTYYADSVKGRFTISRDNAKNTVYLQMNSLKPEDTAVYYCAADYYYGDALSPYYPHWDFYYWGQGTQVTVSS” the “polyreactivity (PSR sort gate)” value was “low polyreactivity”. With “QVKLVESGGGLVQAGGSLRLSCAASGSIFWGYDMGWYRQAPGKERELVARISYSGGSTSYADSVKGRFTISRDNAKNTVYLQMNSLKPEDTAVFYCAADEGGFWWTYPYDSLGQGTQVTVSS” the “polyreactivity (PSR sort gate)” value was “low polyreactivity”. With “QVKLVESGGGLVQAGGSLRLSCAASGSTVVFNTMGWYRQAPGKERELVAAISTGDSTKYADSVKGRFTISRDNAKITVYLQMNSLKPVDTAVDYCAADTQDRTYYGWRQVGGYDYWGQGTQVTVSS” the “polyreactivity (PSR sort gate)” value was “low polyreactivity”. With “QVKLVESGGGLVQAGGSLRLSCADSGSIFWTYAIVWYRHAPGKERELVAAINSSDGTYYADSVKGRFTISRDNAKNTVYLQMNSLKPEDTAVYYCNADRDALFGYDYDYWGQGTQVTVSS” the “polyreactivity (PSR sort gate)” value was “low polyreactivity”. For “QVKLVESGGGLVQAGGSLRLSCAESGRIFHHYAMGWYRQAPGKERELVAAITGGGSTYYADSVKVRFTISRYNAKITVYLQMNSLKPEDTAVYYCAAPPFGYYEVGYDSWGQGSQVTVSS”, the “polyreactivity (PSR sort gate)” value was “low polyreactivity”. With “QVKLVESGGGLVQAGGSLRLSFPASGRTFKYYAMGLYRQEPGKDRELVAAISWSGGSTYYADSVKGRFTISRDNEKNTVYLQMNSLKPEDTAVYYCAAVRHYHGTWYDYWGQGTQVTVSS” the “polyreactivity (PSR sort gate)” value was “high polyreactivity”. In the case of “QVKLVESGGGLVQAGGSLRLTCDASGRIFSSYAMGWYRQAPGKERELVAAIRSSGDRTYYADSVKGRFTISRDNAKNTVYLQMNSLKPEDTAVYYCAARAVLKSWAYYYWGQGTQVTVSS”, the “polyreactivity (PSR sort gate)” value is reported as “high polyreactivity”. With “QVKLVESGGGLVQAGGSLSLSCAASARIFSAYAMGWYRQAPGKEMELVAAISYSGGSTYYADSVKGRFTIARDNAKNTVYLQMNSLKPEDTADYYCAADTVYGYQWGQGTQVTVSS” the “polyreactivity (PSR sort gate)” value was “low polyreactivity”. In the case of “QVKLVESGGGLVQAVGSLRLSCAPSGFTLGSYAMGCYRQAPGKESELVAAITYSGSRTYYADSVKGRFTISRDNAKNTVYLQMNSLKPEDTAVYYCAAVTHYGFDYWGQGTQVTVSS”, the “polyreactivity (PSR sort gate)” value is reported as “high polyreactivity”. For “QVKLVETGGGLVQAGGSLRLSCAASGRTFTPYTMGRYRQAPGKEREFVAAITFRGGSTYYADSVKGRFTISRDIAKNTVYLQMNSLKPEDTEVYFCNARGHGGWGTSMYYWGHGTQVTVSS”, the “polyreactivity (PSR sort gate)” value was “high polyreactivity”. With “QVKRVESGGGIVQAGGSLRLSCAASGSTFHKNVMGWYRQEPGKERELVAAISIIGVRTYYADSVKGRFTISRDNAKNTVYLQINSLKQVDTAVYYCNTDTQNRRGSGRGFWGEGTQVTVSS” the “polyreactivity (PSR sort gate)” value was “high polyreactivity”. In the case of “QVKRVESGGGLVQAGGSLRLSCAASGSIVVTNAMGWYRQAPGKERELVAAITSSGSTDYADSVKGRFTISRDNAKNTVSLLMKILKREDTAVYYCNADVATGIFYGYDSWGQGTQVTVSS”, the “polyreactivity (PSR sort gate)” value is reported as “low polyreactivity”. For “QVLLQESGGGLVLAGGSLRLGCAASGTISPAYYMGRYHQAPGKEREFVAAITYGTNTYYADSVKGRFTISRDNAKYTVYLQMHSLKPEDTAVYYCSATAGYNGAHDYWGQGTQVTVSS”, the “polyreactivity (PSR sort gate)” value was “low polyreactivity”. For “QVLLQESGGGLVQAGGSLRLSCAAIGTISTDIRMGWYRLAPGKEREFVASIDGCSTTYYADSVTGRFTISRDNAKNTVYLQMNSLKPEDTAMFYCAAREATEFYLYYWGQGTQVTVSS”, the “polyreactivity (PSR sort gate)” value was “low polyreactivity”. With “QVLLQESGGRLVQAGGSLRLGCEPSGTISPAYYMGRYHQAPGKEREFVAAITYGTNTYYADSVKGRCTISRDIAKNTVYLQMNSLKPEDSAVYYCSATAGYNGAHDYCGQGTQVTVSS” the “polyreactivity (PSR sort gate)” value was “low polyreactivity”.
